Assay [1] has as its target T1, FcγRIIa H (human, UniProt P12318 34-217).
T1 construct: extracellular domain; Soluble His-tagged extracellular domain expressed in FreeStyle293 cells; also called FcγRIIa type H; FcgRIIa H; not shown: His tag attached to the C terminus
T1 sequence (looked up): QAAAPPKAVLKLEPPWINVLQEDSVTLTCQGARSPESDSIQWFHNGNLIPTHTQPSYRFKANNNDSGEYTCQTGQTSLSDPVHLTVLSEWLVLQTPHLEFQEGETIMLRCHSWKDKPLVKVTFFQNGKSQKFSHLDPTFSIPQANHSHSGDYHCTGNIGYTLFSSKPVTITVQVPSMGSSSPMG
The experiment in a line: SPR (Biacore); He/Con_2aH divided by He/Con_2b (FcγRIIb) of the same antibody. As to the method: The heterodimerized antibodies He Abs in which one of the H chains was introduced with an alteration were assayed for their binding activities to each activating FcγR and inhibitory FcγR according to the method described in Example 4. […] The activating FcγRs in FIGS. 26, 27, 28, and 29 are FcγRIa, FcγRIIa (R), FcγRIIa (H), and FcγRIIIa, respectively.
(§1) Analysis of interaction between objective antibody and the FcγR was carried out using Biacore T100 (GE Healthcare). HBS-EP+ (GE Healthcare) was used as the running buffer, and the measurement temperature was set to 25° C. Chips produced by immobilizing the antigen peptide by the amine coupling method to a Series S Sencor Chip CM5 (GE Healthcare), or alternatively, chips produced by allowing preliminarily biotinylated antigen peptides to interact with and immobilize onto a Series S Sensor Chip SA (certified) (GE Healthcare) were used. Antibodies of interest were captured onto an antigen peptide-immobilized chip, and allowed to interact to each FcγR diluted with running buffer. To regenerate and repeatedly use the chip, the antibodies captured on the chip were washed off by reacting 10 mM glycine-HCl, pH 1.5.

Assay [2] has as its target T1, FcγRIIa H. The experiment in a line: SPR (Biacore), captured antibody, FcγR analyte; relative to GpH7-A5/GpH7-B3/GpL16-k0 = 100. The procedure: as §1
(§2) The FcγR-binding activity of each antibody was assessed primarily using as an indicator the FcγR-binding activity and dissociation constant for FcγR.

Assay [3] addresses T2, FcγRIIb (human, UniProt P31994 43-217).
T2 construct: extracellular domain; Soluble His-tagged extracellular domain expressed in FreeStyle293 cells; also called FcgRIIb; 2b; not shown: His tag attached to the C terminus
T2 sequence (looked up): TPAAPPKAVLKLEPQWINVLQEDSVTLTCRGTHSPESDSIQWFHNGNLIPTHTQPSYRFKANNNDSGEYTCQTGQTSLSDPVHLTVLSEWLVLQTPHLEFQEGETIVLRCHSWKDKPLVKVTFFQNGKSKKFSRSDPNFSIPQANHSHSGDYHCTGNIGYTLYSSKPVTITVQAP
The assay is described as above. As to the method: as §1, §2

In assay [4] the target is T3, FcγRIIIa extracellular domain with C-terminal His tag (human, UniProt P08637 17-208).
T3 construct: extracellular domain; also called FcgRIIIa; 3a; not shown: His tag at the C terminus
T3 sequence (P08637 17-208): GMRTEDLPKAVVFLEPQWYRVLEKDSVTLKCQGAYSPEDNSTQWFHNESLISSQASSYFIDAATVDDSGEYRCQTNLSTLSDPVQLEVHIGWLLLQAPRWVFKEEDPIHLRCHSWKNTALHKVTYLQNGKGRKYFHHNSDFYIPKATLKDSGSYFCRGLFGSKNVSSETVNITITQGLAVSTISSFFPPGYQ
As to the kind of experiment: SPR (Biacore), antibody captured via antigen peptide, FcγR as analyte; binding relative to GpH7-A5/GpH7-B3/GpL16-k0 = 100.

Assay [5] deals with T4, FcγRIIb extracellular domain with C-terminal His tag (human, UniProt P31994 43-217).
T4 construct: extracellular domain; also called FcgRIIb; 2b; not shown: His tag at the C terminus
T4 sequence (looked up): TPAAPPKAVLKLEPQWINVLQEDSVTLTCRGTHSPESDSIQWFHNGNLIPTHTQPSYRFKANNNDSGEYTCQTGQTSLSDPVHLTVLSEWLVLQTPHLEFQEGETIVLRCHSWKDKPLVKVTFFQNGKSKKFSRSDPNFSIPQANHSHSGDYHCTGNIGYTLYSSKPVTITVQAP
The assay is described as above.

B1: GpH7-A5/GpH7-B3 variant P331_15Y/GpL16-k0 (antibody, human IgG1, kappa)
heavy 1: not shown
heavy 2: not shown
light: DIVMTQSPLSLPVTPGEPASISCQASESLVHSNRNTYLHWYLQKPGQSPQLLIYKVSNRFSGVPDRFSGSGSGTDFTLKISRVEAEDVGVYYCSQNTHVPPTFGQGTKVEIERTVAAPSVFIFPPSDEQLKSGTASVVCLLNNFYPREAKVQWKVDNALQSGNSQESVTEQDSKDSTYSLSSTLTLSKADYEKHKVYACEVTHQGLSSPVTKSFNRGEC
notes: Heterodimerized anti-glypican-3 IgG1; mutation in the GpH7-B3 H chain only; also called He Ab
In turn, B1 yielded a He_2aH/2b in assay [1] of 0.75 ratio. The He/Con_2aH in assay [2] was 86 relative (control = 100). The He/Con_2b in assay [3] was 114 relative (control = 100).

B2: GpH7-A5/GpH7-B3 variant S324_05P/GpL16-k0 (antibody, human IgG1, kappa)
heavy 1: not shown
heavy 2: not shown
light: DIVMTQSPLSLPVTPGEPASISCQASESLVHSNRNTYLHWYLQKPGQSPQLLIYKVSNRFSGVPDRFSGSGSGTDFTLKISRVEAEDVGVYYCSQNTHVPPTFGQGTKVEIERTVAAPSVFIFPPSDEQLKSGTASVVCLLNNFYPREAKVQWKVDNALQSGNSQESVTEQDSKDSTYSLSSTLTLSKADYEKHKVYACEVTHQGLSSPVTKSFNRGEC
notes: as for B1
B2 registered a He_2aH/2b in assay [1] of 0.59 ratio. Besides, the He/Con_2aH in assay [2] is 55.5 relative (control = 100). The He/Con_2b in assay [3] was 94.7 relative (control = 100).

B3: GpH7-A5/GpH7-B3 variant I336_13S/GpL16-k0 (antibody, human IgG1, kappa)
heavy 1: not shown
heavy 2: not shown
light: DIVMTQSPLSLPVTPGEPASISCQASESLVHSNRNTYLHWYLQKPGQSPQLLIYKVSNRFSGVPDRFSGSGSGTDFTLKISRVEAEDVGVYYCSQNTHVPPTFGQGTKVEIERTVAAPSVFIFPPSDEQLKSGTASVVCLLNNFYPREAKVQWKVDNALQSGNSQESVTEQDSKDSTYSLSSTLTLSKADYEKHKVYACEVTHQGLSSPVTKSFNRGEC
notes: He Ab: the mutation stands only in the GpH7-B3-derived H chain; also called He Ab I336S
For the molecule B3, the He/Con_3a in assay [4] is 102 relative (control = 100). Also, the He/Con_2b in assay [5] is 83.7 relative (control = 100).

B4: GpH7-A5/GpH7-B3 variant S337_01G/GpL16-k0 (antibody, human IgG1, kappa)
heavy 1: not shown
heavy 2: not shown
light: DIVMTQSPLSLPVTPGEPASISCQASESLVHSNRNTYLHWYLQKPGQSPQLLIYKVSNRFSGVPDRFSGSGSGTDFTLKISRVEAEDVGVYYCSQNTHVPPTFGQGTKVEIERTVAAPSVFIFPPSDEQLKSGTASVVCLLNNFYPREAKVQWKVDNALQSGNSQESVTEQDSKDSTYSLSSTLTLSKADYEKHKVYACEVTHQGLSSPVTKSFNRGEC
notes: He Ab: the mutation stands only in the GpH7-B3-derived H chain; also called He Ab S337G
As to B4, the He/Con_3a in assay [4] was 102 relative (control = 100). Moreover, the He/Con_2b in assay [5] is 92 relative (control = 100).

B5: GpH7-A5/GpH7-B3 variant I336_03V/GpL16-k0 (antibody, human IgG1, kappa)
heavy 1: not shown
heavy 2: not shown
light: DIVMTQSPLSLPVTPGEPASISCQASESLVHSNRNTYLHWYLQKPGQSPQLLIYKVSNRFSGVPDRFSGSGSGTDFTLKISRVEAEDVGVYYCSQNTHVPPTFGQGTKVEIERTVAAPSVFIFPPSDEQLKSGTASVVCLLNNFYPREAKVQWKVDNALQSGNSQESVTEQDSKDSTYSLSSTLTLSKADYEKHKVYACEVTHQGLSSPVTKSFNRGEC
notes: He Ab: the mutation stands only in the GpH7-B3-derived H chain; also called He Ab I336V
For B5, in assay [4], the He/Con_3a was 112 relative (control = 100). Further, in assay [5], the He/Con_2b was 90.3 relative (control = 100).

B6: GpH7-A5/GpH7-B3 variant K334_09D/GpL16-k0 (antibody, human IgG1, kappa)
heavy 1: not shown
heavy 2: not shown
light: DIVMTQSPLSLPVTPGEPASISCQASESLVHSNRNTYLHWYLQKPGQSPQLLIYKVSNRFSGVPDRFSGSGSGTDFTLKISRVEAEDVGVYYCSQNTHVPPTFGQGTKVEIERTVAAPSVFIFPPSDEQLKSGTASVVCLLNNFYPREAKVQWKVDNALQSGNSQESVTEQDSKDSTYSLSSTLTLSKADYEKHKVYACEVTHQGLSSPVTKSFNRGEC
notes: He Ab: the mutation stands only in the GpH7-B3-derived H chain; also called He Ab K334D
Regarding B6, the He/Con_3a in assay [4] is 160 relative (control = 100). Further, the He/Con_2b in assay [5] was 94.8 relative (control = 100).

B7: GpH7-A5/GpH7-B3 variant I336_09D/GpL16-k0 (antibody, human IgG1, kappa)
heavy 1: not shown
heavy 2: not shown
light: DIVMTQSPLSLPVTPGEPASISCQASESLVHSNRNTYLHWYLQKPGQSPQLLIYKVSNRFSGVPDRFSGSGSGTDFTLKISRVEAEDVGVYYCSQNTHVPPTFGQGTKVEIERTVAAPSVFIFPPSDEQLKSGTASVVCLLNNFYPREAKVQWKVDNALQSGNSQESVTEQDSKDSTYSLSSTLTLSKADYEKHKVYACEVTHQGLSSPVTKSFNRGEC
notes: He Ab: the mutation stands only in the GpH7-B3-derived H chain; also called He Ab I336D
With B7, the He/Con_3a in assay [4] was 106 relative (control = 100). Further, the He/Con_2b in assay [5] is 92.1 relative (control = 100).

B8: GpH7-A5/GpH7-B3 variant K334_01G/GpL16-k0 (antibody, human IgG1, kappa)
heavy 1: not shown
heavy 2: not shown
light: DIVMTQSPLSLPVTPGEPASISCQASESLVHSNRNTYLHWYLQKPGQSPQLLIYKVSNRFSGVPDRFSGSGSGTDFTLKISRVEAEDVGVYYCSQNTHVPPTFGQGTKVEIERTVAAPSVFIFPPSDEQLKSGTASVVCLLNNFYPREAKVQWKVDNALQSGNSQESVTEQDSKDSTYSLSSTLTLSKADYEKHKVYACEVTHQGLSSPVTKSFNRGEC
notes: He Ab: the mutation stands only in the GpH7-B3-derived H chain; also called He Ab K334G
Turning to B8, the He/Con_3a in assay [4] was 121 relative (control = 100). Also, the He/Con_2b in assay [5] is 92.5 relative (control = 100).
